Measurements published in US8357518B2, “Thermostable enzymes for the hydrolysis of mannan-containing polysaccharides” (The Board of Trustees of the University of Illinois, priority 2010, dated 2013).

Assays:
Test in all cases: Catalytic efficiency with oligosaccharides, HPAEC (Man5A-TM1)
Format in all cases: biochemical, Caldanaerobius polysaccharolyticus
Conditions in all cases: other: Man5A-TM1 0.3 μM, oligosaccharide 30 μM, citrate buffer 50 mM, pH 5.5, 5 min, triplicate
[1] = substrate: OC[C@H]1O[C@@H](O[C@H]2[C@H](O)[C@H](O)[C@H](O[C@H]3[C@H](O)[C@H](O)[C@H](O[C@H]4[C@H](O)[C@H](O)C(O)O[C@@H]4CO)O[C@@H]3CO)O[C@@H]2CO)[C@@H](O)[C@@H](O)[C@@H]1O
Method: (§1) Cloning, expression, and purification of Man5A-TM1, Man5A-TM2 and Man5B. C. polysaccharolyticus was cultured in TYG medium and DNA was isolated from mid-log cultures and purified using the Qiagen DNeasy Blood and Tissue kit with an integrated RNase treatment step. The genome of C. polysaccharolyticus was partially sequenced by the W. M. Keck Biotechnology Center at the University of Illinois at Urbana-Champaign. A Newbler assembly was generated which is comprised of ½ plate of FLX PE 454 data and ½ plate of 8 kb paired-end GSFLX Titanium data using a Genome Sequencer instrument from 454 Life Sciences (Branford, Conn.). The partial genome sequence was uploaded onto the Rapid Annotation using Subsystem Technology (RAST) server (Aziz et al., BMC Genomics, 9:75, 2008). Auto-annotation of the C. polysaccharolyticus partial genome sequence identified ORF0760 as a gene predicted to encode a bifunctional β-D-mannanase/endoglucanase (Man5B). Man5A was previously identified in a recombinant phage library of C. polysaccharolyticus genomic DNA, which was screened for endoglucanase activity (Cann et al., J Bacteriol, 181:1643, 1999) and the full sequence of this gene was also identified in the partial genome sequence for C. polysaccharolyticus.
(§2) The DNA sequence corresponding to man5B was amplified by the PicoMaxx high fidelity PCR kit using genomic DNA as the template with the primer set Man5B-Forward and Man5B-Reverse (Table 1-1). The primers were engineered to incorporate a 5′-[…] (SEQ ID NO: 54) extension in Man5B-F and a 5′-[…] (SEQ ID NO: 55) extension in Man5B-R, which facilitated subsequent directional cloning. The resultant man5B amplicon was then digested with T4 DNA polymerase exonuclease activity, annealed with a similarly digested pET-46b vector and introduced into E. coli JM109 by electroporation. Man5A-TM1 was amplified using genomic DNA as template with primers Man5A-TM1-F and Man5A-TM1-R (Table 1-1). The primer sets for Man5A-TM1 and Man5A-TM2 were designed to include 5′-NdeI and 3′-XhoI restriction sites for subsequent directional cloning. The resulting amplicons were then cloned into the pGEM-T vector via TA-cloning and subcloned in-frame with the hexahistidine (His6) encoding sequence of a modified pET-28a expression vector via its NdeI-XhoI polylinker site. The truncated protein Man5A-TM2 originally named ManA-SLH-CBD was cloned as described in a previous study (Cann et al., J Bacteriol, 181:1643, 1999). Expression of each of the resulting gene constructs yielded fusion proteins containing an N-terminal polyhistidine tag sequence to facilitate affinity purification via metal chelate chromatography. The resulting plasmid constructs pET46-Man5B, pET28a-Man5A-TM1, and pET-28a-Man5A-TM2 were sequenced to confirm the integrity of the cloned genes (W. M. Keck Center for Comparative and Functional Genomics at the University of Illinois at Urbana-Champaign).
(§3) The plasmid constructs were then introduced into E. coli BL-21 CodonPlus (DE3) RIL competent cells by heat shock, and grown overnight in lysogeny broth (LB) agar medium supplemented with ampicillin (100 μg/mL) and chloramphenicol (50 μg/mL) at 37° C. After 12 h, single colonies were selected and used to inoculate fresh LB (10 mL) supplemented with the antibiotics above at the same concentrations, followed by culturing with aeration for 8 h at 37° C. The pre-cultures were then inoculated into fresh LB (1 L) supplemented with ampicillin and chloramphenicol and the cultures were incubated at 37° C. with vigorous aeration (225 rpm/min). The cultures were grown to an optical density of 0.3 at 600 nm, and the temperature was shifted to 16° C. and gene expression was induced by the addition of 0.1 mM isopropyl β-D-thiogalactopyranoside (IPTG). […]

[2] = substrate: OC[C@H]1O[C@@H](O[C@H]2[C@H](O)[C@@H](O)[C@H](O[C@H]3[C@H](O)[C@@H](O)[C@H](O[C@H]4[C@H](O)[C@@H](O)[C@H](O[C@H]5[C@H](O)[C@@H](O)C(O)O[C@@H]5CO)O[C@@H]4CO)O[C@@H]3CO)O[C@@H]2CO)[C@H](O)[C@@H](O)[C@@H]1O
Method: as §1, §2, §3

[3] = substrate: OC[C@H]1O[C@@H](O[C@H]2[C@H](O)[C@H](O)[C@H](O[C@H]3[C@H](O)[C@H](O)[C@H](O[C@H]4[C@H](O)[C@H](O)[C@H](O[C@H]5[C@H](O)[C@H](O)[C@H](O[C@H]6[C@H](O)[C@H](O)C(O)O[C@@H]6CO)O[C@@H]5CO)O[C@@H]4CO)O[C@@H]3CO)O[C@@H]2CO)[C@@H](O)[C@@H](O)[C@@H]1O
Method: as §1, §2, §3

[4] = substrate: OC[C@H]1O[C@@H](O[C@H]2[C@H](O)[C@@H](O)[C@H](O[C@H]3[C@H](O)[C@@H](O)[C@H](O[C@H]4[C@H](O)[C@@H](O)C(O)O[C@@H]4CO)O[C@@H]3CO)O[C@@H]2CO)[C@H](O)[C@@H](O)[C@@H]1O
Method: as §1, §2, §3

[5] = substrate: OC[C@H]1O[C@@H](O[C@H]2[C@H](O)[C@@H](O)[C@H](O[C@H]3[C@H](O)[C@@H](O)[C@H](O[C@H]4[C@H](O)[C@@H](O)[C@H](O[C@H]5[C@H](O)[C@@H](O)[C@H](O[C@H]6[C@H](O)[C@@H](O)C(O)O[C@@H]6CO)O[C@@H]5CO)O[C@@H]4CO)O[C@@H]3CO)O[C@@H]2CO)[C@H](O)[C@@H](O)[C@@H]1O
Method: as §1, §2, §3

B1: Caldanaerobius polysaccharolyticus endo-β-mannanase Man5A truncation mutant Man5A-TM1, SEQ ID NO: 28 (Caldanaerobius polysaccharolyticus) (protein)
chain: AGTSGDGRFHVVGNKIVDPDGKDFIIKGVNIQGYRSWEKRSVLQDVHLIADVWKFNTVRLNCFIGQNNWGEGTGANNDIDAIIKAFTAKKVVVEIDLHDTTGYPPLSNPPPAPGQPSLDQAIAWFKELAAKYKDNPYVWFNTMNEPGSSTAPLDPQWKVANEEIIKAIRSTGADNIIVVDGWSYANEGIEQNTPTVDEKRSAVLTYGQDLLNADSAKNTIFAFHNYNEGDIQKKVEDYIDRANAKGLYVFMEEYGKDYSDAAKEGVKSGLQAVMNKGAGRIYWNWDGYDLYDLTSGTGRGSGWEINKTDGSKPTNLSWVGDKIWDDNHGITPTFDDQNPKVDLALERLIANNNGFKAGDKVQFTTFLRNSGDLPIGKDSKVVVKFYVDGVQLGDPVEISGGIAVGQRIPVTSPELTVSKTDFTVKAVIDSSSTYADGAEDAVIENNWIEAAFNSTAPSSGYELVVTGIKITPDTVKEGDYVQAQVTVANQGPEATPVTNIIGWFYVNGYYYTLDDAAKSCAEQDNVTLKPGESITLSTKVKYRAAAPFNFSFVLENLYADDQNQSNNSITVNVPVKMGEGGVNMVSNPGFEDGLDSWQDWQQDMSAVPEAAHNGALGLKIGGGKAAGGGQDIPLKPNTTYILGAWAKFDSKPAGTFDVVVQYHLKDANNTYVQHILNFNETDWTYKQLLFTTPDVFGSTPQLALWKGDTSKANLYVDDVYLVEVSNLIVNGTAENGMDGWPDWGYPVSAVPEAAYGGTKGFKLSGGKQAGMGQKVALKPNTTYILGAWGKFTAKPGTYCDVIVQYHLKDANNTYVQNILRFTETDWTYKQVVFTTPDAFGSDPEFVLWKDDASNADFYADNITLVEV
kcat/Km [1]: 17000 ± 4000 M⁻¹ s⁻¹ | kcat/Km [2]: 9300 ± 2000 M⁻¹ s⁻¹ | kcat/Km [3]: (1.2 ± 0.2) × 10^2 mM^−1 s^−1 | kcat/Km [4]: 11000 ± 2000 M⁻¹ s⁻¹ | kcat/Km [5]: 20000 ± 2000 M⁻¹ s⁻¹
